{"source": "paper PMC5632219", "target": "HIV-1 glycoprotein gp120 (HIV-1) (UniProt P04578)", "experiment": "ELISA"}
{"substance": "recombinant 2G12 mAb (IgG1) (antibody)", "values": [{"measurement": "EC50", "result": 2.3, "unit": "pM"}]}
